Values quoted from earlier work, collected in paper PMC8573850.
Values joined by “and” are separate entries in the source; they are usually repeats but may differ in a detail not shown here. Equal values may be shown once.

Molecular target: Neuropilin-1 (Homo sapiens) (UniProt O14786)
Sequence of UniProt O14786 (O14786 22-856): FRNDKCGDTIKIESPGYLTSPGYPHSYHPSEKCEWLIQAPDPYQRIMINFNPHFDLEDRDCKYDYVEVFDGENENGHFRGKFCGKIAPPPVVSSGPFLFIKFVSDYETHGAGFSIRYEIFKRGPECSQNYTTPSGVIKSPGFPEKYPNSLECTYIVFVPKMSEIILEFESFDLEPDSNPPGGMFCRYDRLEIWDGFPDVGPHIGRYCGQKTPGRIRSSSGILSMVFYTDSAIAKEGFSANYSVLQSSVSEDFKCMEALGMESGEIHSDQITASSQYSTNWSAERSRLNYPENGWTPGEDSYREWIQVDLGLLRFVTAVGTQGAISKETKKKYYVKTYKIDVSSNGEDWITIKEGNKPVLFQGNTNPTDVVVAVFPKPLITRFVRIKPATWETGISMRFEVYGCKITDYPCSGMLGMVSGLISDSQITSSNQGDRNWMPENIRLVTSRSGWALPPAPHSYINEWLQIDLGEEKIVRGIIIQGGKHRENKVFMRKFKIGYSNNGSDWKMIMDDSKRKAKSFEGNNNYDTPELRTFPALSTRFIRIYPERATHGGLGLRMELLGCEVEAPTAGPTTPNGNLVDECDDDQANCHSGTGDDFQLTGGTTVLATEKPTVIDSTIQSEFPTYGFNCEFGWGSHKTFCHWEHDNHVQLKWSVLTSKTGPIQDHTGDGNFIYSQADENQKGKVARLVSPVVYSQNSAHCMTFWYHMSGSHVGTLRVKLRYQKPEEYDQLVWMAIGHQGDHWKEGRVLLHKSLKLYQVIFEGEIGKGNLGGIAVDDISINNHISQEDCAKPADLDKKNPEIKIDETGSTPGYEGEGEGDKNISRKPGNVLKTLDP

Substance: Spike protein CendR peptide CendR (from UniProt P0DTC2)
- Kd: 13 µM and 20 µM
